Experimental findings from patent US20240116985A1 (published 2024) are described below.

To fix the notation:
B1: I-1141 (peptide)
peptide: Ac-[αAllylPro]DF[B5]DDAAFS[PyrS2][Phe(2-Cl)][Bta]T-NH2
modifications: staple 1-4, 4-11
notes: Stapled (stitched) peptide by olefin metathesis; E/Z isomer(s) of the staples not assigned
B2: I-1146 (peptide)
peptide: Ac-[αAllylPro]DF[B5]DDAAFL[PyrS2][Phe(2-Cl)][Bta][dT]-NH2
modifications: staple 1-4, 4-11
notes: as for B1
B3: I-1145 (peptide)
peptide: Ac-[αAllylPro]DF[B5]DDAAFL[PyrS2][Phe(2-Cl)][Bta]T-NH2
modifications: staple 1-4, 4-11
notes: as for B1
B4: I-1144 (peptide)
peptide: Ac-[αAllylPro]DF[B5]DDAAFS[PyrS2][Phe(2-Cl)][Bta]L-NH2
modifications: staple 1-4, 4-11
notes: as for B1
B5: I-1143 (peptide)
peptide: Ac-[αAllylPro]DF[B5]DDAAFS[PyrS2][Phe(2-Cl)][Bta][hSer]-NH2
modifications: staple 1-4, 4-11
notes: as for B1
B6: I-1142 (peptide)
peptide: Ac-[αAllylPro]DF[B5]DDAAFS[PyrS2][Phe(2-Cl)][Bta][dT]-NH2
modifications: staple 1-4, 4-11
notes: as for B1

Starred links: 1 amine or outer side, 2 acyl side, 3 side chain; linkers in the order of their positions; H or OH if unused. Positions of bridges follow the written chain, without caps; N, C: chain ends. Non-standard residues stand in square brackets, D forms with d. Primed or numbered codes have the meaning given here. *: point of attachment. PyrS2(3) = (S)-3-amino-1-((pent-4-en-1-yloxy)carbonyl)pyrrolidine-3-carboxylic acid, stapling residue, C=CCCCOC(=O)N1CC[C@@](N[*:1])(C(=O)[*:2])C1; B5(18) = 2,2-bis(4-pentenyl)glycine (2-amino-2-(pent-4-en-1-yl)hept-6-enoic acid), stitching residue, C=CCCCC(CCCC=C)(N[*:1])C(=O)[*:2]; B5(4) = 2,2-bis(4-pentenyl)glycine = 2-amino-2-(pent-4-en-1-yl)hept-6-enoic acid (stitching residue), C=CCCCC(CCCC=C)(N[*:1])C(=O)[*:2]; TfeGA = (S)-2-amino-3-((carboxymethyl)(2,2,2-trifluoroethyl)amino)propanoic acid, O=C([C@H](CN(CC(=O)[*:3])CC(F)(F)F)N[*:1])[*:2]; PyrS2 = (S)-3-amino-1-((pent-4-en-1-yloxy)carbonyl)pyrrolidine-3-carboxylic acid, C=CCCCOC(=O)N1CC[C@@](N[*:1])(C(=O)[*:2])C1; TriAzDap = Dap whose side chain is a 1H-1,2,3-triazol-1-yl bearing the bracketed 4-substituent; B5 = 2-amino-2-(pent-4-en-1-yl)hept-6-enoic acid, C=CCCCC(CCCC=C)(N[*:1])C(=O)[*:2]; Phe(2-Cl) = N[C@@H](Cc1ccccc1Cl)C(=O)O; Bta = N[C@@H](Cc1csc2ccccc12)C(=O)O; αAllylPro = C=CC[C@@]1(C(=O)O)CCCN1; tBuAla = CC(C)(C)C[C@H](N)C(=O)O; 3Thi = N[C@@H](Cc1ccsc1)C(=O)O; hSer = N[C@@H](CCO)C(=O)O; MorphCH2 = C1CN(C*)CCO1 Bounds are passed on as bounds.

The first assay addresses T1, Bcat-Halo (UniProt P35222 1-781).
T1 sequence (looked up): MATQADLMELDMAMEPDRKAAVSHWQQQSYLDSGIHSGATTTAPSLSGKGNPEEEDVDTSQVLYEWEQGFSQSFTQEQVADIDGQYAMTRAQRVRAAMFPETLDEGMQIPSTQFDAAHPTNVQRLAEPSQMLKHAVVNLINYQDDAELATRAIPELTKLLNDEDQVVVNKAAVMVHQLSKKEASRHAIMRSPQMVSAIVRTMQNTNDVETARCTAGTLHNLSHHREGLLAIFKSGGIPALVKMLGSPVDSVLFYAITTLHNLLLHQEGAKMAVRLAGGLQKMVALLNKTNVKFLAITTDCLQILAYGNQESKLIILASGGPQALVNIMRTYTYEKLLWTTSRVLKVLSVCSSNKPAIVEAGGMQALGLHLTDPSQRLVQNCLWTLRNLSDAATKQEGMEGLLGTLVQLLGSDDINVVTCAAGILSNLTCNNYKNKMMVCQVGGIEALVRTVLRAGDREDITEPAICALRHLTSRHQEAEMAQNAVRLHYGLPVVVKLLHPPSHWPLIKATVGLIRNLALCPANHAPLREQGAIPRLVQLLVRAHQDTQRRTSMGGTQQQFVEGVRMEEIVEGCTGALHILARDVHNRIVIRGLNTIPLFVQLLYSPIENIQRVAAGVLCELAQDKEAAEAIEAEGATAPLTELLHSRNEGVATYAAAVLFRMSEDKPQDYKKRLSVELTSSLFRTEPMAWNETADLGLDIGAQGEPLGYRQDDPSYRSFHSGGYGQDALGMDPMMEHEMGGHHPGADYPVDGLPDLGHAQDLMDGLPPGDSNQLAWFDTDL
The experiment in a line: cell-based or functional assay.
Take Ac-[αAllylPro]D[tBuAla][B5(4)]DDAAFL[PyrS2][3Thi]WS-NH2 (staple 1-4, 4-11) [I-1432]: the “NanoBRET Abs IC50” value was determined as 14500 nM.

For a further assay, the target named is T2, B-cat-Halo (beta-catenin HaloTag NanoBRET construct expressed in HEK293 cells) (UniProt P35222 1-781).
T2 sequence (looked up): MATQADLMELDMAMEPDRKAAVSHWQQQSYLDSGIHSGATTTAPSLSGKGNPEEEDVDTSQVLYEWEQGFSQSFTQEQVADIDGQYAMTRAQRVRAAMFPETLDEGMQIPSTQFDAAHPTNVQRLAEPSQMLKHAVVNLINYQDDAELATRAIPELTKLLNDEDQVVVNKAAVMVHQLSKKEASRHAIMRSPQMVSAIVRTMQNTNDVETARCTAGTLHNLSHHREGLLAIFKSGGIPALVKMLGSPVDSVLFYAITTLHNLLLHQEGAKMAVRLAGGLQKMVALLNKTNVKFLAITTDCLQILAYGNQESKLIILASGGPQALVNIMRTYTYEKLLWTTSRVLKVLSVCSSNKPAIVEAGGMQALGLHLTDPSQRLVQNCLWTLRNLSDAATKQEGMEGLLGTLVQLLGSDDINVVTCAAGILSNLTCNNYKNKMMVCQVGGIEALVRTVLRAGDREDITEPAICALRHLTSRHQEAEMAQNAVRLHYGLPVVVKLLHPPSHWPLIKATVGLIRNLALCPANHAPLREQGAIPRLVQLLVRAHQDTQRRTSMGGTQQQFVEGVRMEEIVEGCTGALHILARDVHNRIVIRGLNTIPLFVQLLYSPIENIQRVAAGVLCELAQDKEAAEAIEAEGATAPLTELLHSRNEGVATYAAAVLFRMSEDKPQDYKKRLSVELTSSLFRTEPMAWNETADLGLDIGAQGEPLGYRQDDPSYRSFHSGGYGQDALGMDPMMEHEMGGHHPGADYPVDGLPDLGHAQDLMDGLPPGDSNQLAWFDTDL
The experiment in a line: cell-based or functional assay.
Consider Ac-[αAllylPro]D[tBuAla][B5(18)]D[TfeGA]AAF[TriAzDap](MorphCH2)[PyrS2(3)][3Thi][Bta]Q-NH2 (staple 1-4, 4-11; not fully specified) [I-1866], for which the “NanoBRET Abs IC50” value was above 20000 nM.

Consider Ac-[αAllylPro]D[tBuAla][B5(18)]D[TfeGA]AAF[TriAzDap](SO2MorphCH2)[PyrS2(3)][3Thi][Bta]Q-NH2 (staple 1-4, 4-11; not fully specified) [I-1868], for which the “NanoBRET Abs IC50” value is 39600 nM.

Regarding Ac-[αAllylPro]D[tBuAla][B5(18)]D[TfeGA]AAF[TriAzDap](CH2Ppz)[PyrS2(3)][3Thi][Bta]Q-NH2 (staple 1-4, 4-11; not fully specified) [I-1863], the “NanoBRET Abs IC50” value amounted to 37400 nM.

Consider Ac-[αAllylPro]D[tBuAla][B5(18)]D[TfeGA]AAF[TriAzDap](CH2Ppz)[PyrS2(3)][3Thi][Bta]Q-NH2 (staple 1-4, 4-11; not fully specified) [I-1864], for which the “NanoBRET Abs IC50” value is above 20000 nM.

Consider Ac-[αAllylPro]D[tBuAla][B5(18)]D[TfeGA]AAF[TriAzDap](MorphCH2)[PyrS2(3)][3Thi][Bta]Q-NH2 (staple 1-4, 4-11; not fully specified) [I-1867], for which the “NanoBRET Abs IC50” value stood at 16400 nM.

Take Ac-[αAllylPro]D[tBuAla][B5(18)]D[TfeGA]AAF[TriAzDap](MorphCH2)[PyrS2(3)][3Thi][Bta]Q-NH2 (staple 1-4, 4-11; not fully specified) [I-1865]: the “NanoBRET Abs IC50” value was above 20000 nM.

In a further assay the target is T3, full-length beta-Catenin (Uniprot ID P35222) (Homo sapiens (Human), UniProt P35222 2-781).
T3 construct: also called bCat; B-Catenin
T3 sequence: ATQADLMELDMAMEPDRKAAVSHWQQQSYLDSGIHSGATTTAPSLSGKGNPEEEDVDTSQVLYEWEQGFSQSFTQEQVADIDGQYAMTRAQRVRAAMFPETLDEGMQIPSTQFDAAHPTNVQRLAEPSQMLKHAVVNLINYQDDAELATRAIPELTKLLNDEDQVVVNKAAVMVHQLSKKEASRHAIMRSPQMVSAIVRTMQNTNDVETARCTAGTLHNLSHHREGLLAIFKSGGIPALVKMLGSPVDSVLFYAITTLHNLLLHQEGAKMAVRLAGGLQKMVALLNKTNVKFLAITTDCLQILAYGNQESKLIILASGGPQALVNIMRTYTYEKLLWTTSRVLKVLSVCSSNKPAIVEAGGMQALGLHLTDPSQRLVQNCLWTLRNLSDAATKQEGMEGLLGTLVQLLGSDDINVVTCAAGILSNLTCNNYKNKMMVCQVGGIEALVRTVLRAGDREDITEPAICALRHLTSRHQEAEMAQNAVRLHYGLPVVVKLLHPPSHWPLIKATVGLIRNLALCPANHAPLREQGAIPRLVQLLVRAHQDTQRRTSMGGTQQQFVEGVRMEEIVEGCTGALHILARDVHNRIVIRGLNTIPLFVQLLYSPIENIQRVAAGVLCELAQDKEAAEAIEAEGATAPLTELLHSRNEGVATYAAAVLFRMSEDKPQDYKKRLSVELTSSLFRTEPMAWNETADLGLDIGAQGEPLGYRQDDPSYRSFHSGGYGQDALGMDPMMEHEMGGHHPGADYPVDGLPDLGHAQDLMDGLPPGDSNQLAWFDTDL
The experiment in a line: fluorescence polarization competition, 5FAM-TCF4 10-53 probe on full-length beta-catenin. The procedure:
The plate was incubated protected from light for 60 minutes at 20° C. prior to read. Reads were performed on a CLARIOstar plate reader (BMG Labtech) in duplicate, and data were fitted to a 1:1 binding model with hill slope using an in-house script. All provided concentrations are final concentrations.
On the technique in general: Fluorescence polarisation rises when a labelled molecule tumbles more slowly, as on binding a larger partner.
Regarding B1, the 50% effective concentration (EC50) – broadly, the concentration needed to bring the measured effect to its halfway point – was 13 nM.

In turn, B2 yielded an EC50 of 33 nM.

Molecule B3 returned an EC50 of 18 nM. Against the preceding molecule, the EC50 is about 1.8-fold lower.

Molecule B4 returned an EC50 of 28 nM.

For the molecule B5, the EC50 was found to be 12 nM.

In turn, B6 returned an EC50 of 22 nM. Against the preceding molecule, the EC50 is about 1.8-fold higher.
